# Results as given in publication PMC9054839 (2022).
# B1: C-terminally ypet-tagged full-length talin WT [mouse] / paxillin (endogenous, fibroblasts) [mouse (endogenous in talin^1/2dko fibroblasts)] (parent complex)
# chain 1: MVALSLKISIGNVVKTMQFEPSTMVYDACRMIRERIPEALAGPPNDFGLFLSDDDPKKGIWLEAGKALDYYMLRNGDTMEYRKKQRPLKIRMLDGTVKTIMVDDSKTVTDMLMTICARIGITNHDEYSLVRELMEEKKDEGTGTLRKDKTLLRDEKKMEKLKQKLHTDDELNWLDHGRTLREQGVEEHETLLLRRKFFYSDQNVDSRDPVQLNLLYVQARDDILNGSHPVSFDKACEFAGFQCQIQFGPHNEQKHKAGFLDLKDFLPKEYVKQKGERKIFQAHKNCGQMSEIEAKVRYVKLARSLKTYGVSFFLVKEKMKGKNKLVPRLLGITKECVMRVDEKTKEVIQEWSLTNIKRWAASPKSFTLDFGDYQDGYYSVQTTEGEQIAQLIAGYIDIILKKKKSKDHFGLEGDEESTMLEDSVSPKKSTVLQQQYNRVGKVEHGSVALPAIMRSGASGPENFQVGSMPPAQQQITSGQMHRGHMPPLTSAQQALTGTINSSMQAVQAAQATLDDFETLPPLGQDAASKAWRKNKMDESKHEIHSQVDAITAGTASVVNLTAGDPAETDYTAVGCAVTTISSNLTEMSRGVKLLAALLEDEGGNGRPLLQAAKGLAGAVSELLRSAQPASAEPRQNLLQAAGNVGQASGELLQQIGESDTDPHFQDVLMQLAKAVASAAAALVLKAKSVAQRTEDSGLQTQVIAAATQCALSTSQLVACTKVVAPTISSPVCQEQLVEAGRLVAKAVEGCVSASQAATEDGQLLRGVGAAATAVTQALNELLQHVKAHATGAGPAGRYDQATDTILTVTENIFSSMGDAGEMVRQARILAQATSDLVNAIKADAEGESDLENSRKLLSAAKILADATAKMVEAAKGAAAHPDSEEQQQRLREAAEGLRMATNAAAQNAIKKKLVQRLEHAAKQAAASATQTIAAAQHAASAPKASAGPQPLLVQSCKAVAEQIPLLVQGVRGSQAQPDSPSAQLALIAASQSFLQPGGKMVAAAKASVPTIQDQASAMQLSQCAKNLGTALAELRTAAQKAQEACGPLEMDSALSVVQNLEKDLQEIKAAARDGKLKPLPGETMEKCTQDLGNSTKAVSSAIAKLLGEIAQGNENYAGIAARDVAGGLRSLAQAARGVAALTSDPAVQAIVLDTASDVLDKASSLIEEAKKASGHPGDPESQQRLAQVAKAVTQALNRCVSCLPGQRDVDNALRAVGDASKRLLSDSLPPSTGTFQEAQSRLNEAAAGLNQAATELVQASRGTPQDLARASGRFGQDFSTFLEAGVEMAGQAPSQEDRAQVVSNLKGISMSSSKLLLAAKALSTDPASPNLKSQLAAAARAVTDSINQLITMCTQQAPGQKECDNALRQLETVRELLENPVQPINDMSYFGCLDSVMENSKVLGEAMTGISQNAKNGNLPEFGDAIATASKALCGFTEAAAQAAYLVGVSDPNSQAGQQGLVEPTQFARANQAIQMACQSLGEPGCTQAQVLSAATIVAKHTSALCNSCRLASARTANPTAKRQFVQSAKEVANSTANLVKTIKALDGDFTEENRAQCRAATAPLLEAVDNLSAFASNPEFSSVPAQISPEGRAAMEPIVISAKTMLESAGGLIQTARALAVNPRDPPRWSVLAGHSRTVSDSIKKLITSMRDKAPGQLECETAIAALNSCLRDLDQASLAAVSQQLAPREGISQEALHTQMLTAVQEISHLIEPLASAARAEASQLGHKVSQMAQYFEPLTLAAVGAASKTLSHPQQMALLDQTKTLAESALQLLYTAKEAGGNPKQAAHTQEALEEAVQMMTEAVEDLTTTLNEAASAAGVVGGMVDSITQAINQLDEGPMGDPEGSFVDYQTTMVRTAKAIAVTVQEMVTKSNTSPEELGPLANQLTSDYGRLASQAKPAAVAAENEEIGAHIKHRVQELGHGCSALVTKAGALQCSPSDVYTKKELIECARRVSEKVSHVLAALQAGNRGTQACITAASAVSGIIADLDTTIMFATAGTLNREGAETFADHREGILKTAKVLVEDTKVLVQNAAGSQEKLAQAAQSSVATITRLADVVKLGAASLGAEDPETQVVLINAVKDVAKALGDLISATKAAAGKVGDDPAVWQLKNSAKVMVTNVTSLLKTVKAVEDEATKGTRALEATTEHIRQELAVFCSPEPPAKTSTPEDFIRMTKGITMATAKAVAAGNSCRQEDVIATANLSRRAIADMLRACKEAAFHPEVAPDVRLRALHYGRECANGYLELLDHVLLTLQKPNPDLKQQLTGHSKRVAGSVTELIQAAEAMKGTEWVDPEDPTVIAENELLGAAAAIEAAAKKLEQLKPRAKPKEADESLNFEEQILEAAKSIAAATSALVKAASAAQRELVAQGKVGAIPANALDDGQWSQGLISAARMVAAATNNLCEAANAAVQGHASQEKLISSAKQVAASTAQLLVACKVKADQDSEAMKRLQAAGNAVKRASDNLVKAAQKAAAFEDQENETVVVKEKMVGGIAQIIAAQEEMLRKERELEEARKKLAQIRQQQYKFLPSELRDEH
# chain 2: not shown
# Variants of: B1
# Experiment: anti-GFP immunoprecipitation, western blot quantification; talin1/2dKO fibroblasts, N = 3; parent: 1; read off a plot
row,ratio to parent,Variant
1,~0.28,"chain 1 A680E, chain 1 K687E, chain 1 T2126E, chain 1 K2133E"
2,~0.69,"chain 1 T2126E, chain 1 K2133E"
3,~0.44,"chain 1 A680E, chain 1 K687E"
